The values below come from patent US20170247716A1 (PIONEER HI BRED INTERNATIONAL, published 2017).

Sequences and labels used below:
B1: AtARL-NubG (other, UniProt Q8RXL7 1-135, looked up)
chain: MIREFSSLQNDIINIQEHYSLNNNMDVRGDHNRKNTSFRGSAPAPIMGKQELFRTLSSQNSPRRLISASYFSLESMVVLVGLTASLLILPLILPPLPPPPFMLLLIPIGIMVLLMVLAFMPSSNSKHVSSSSTFM
notes: Prey of the split-ubiquitin yeast two-hybrid system; also called Arabidopsis ARGOS-LIKE (ARL); not shown: N-terminal half of a mutated ubiquitin (NubG)

One assay deals with T1, AtRTE1-Cub-PLV (Arabidopsis, UniProt F4ITL6 1-250).
T1 construct: Bait of the mating-based split-ubiquitin yeast two-hybrid system; also called AtRTE1 bait construct; not shown: C-terminal half of ubiquitin (Cub); synthetic transcription factor PLV (protease A-LexA-VP16)
T1 sequence (looked up): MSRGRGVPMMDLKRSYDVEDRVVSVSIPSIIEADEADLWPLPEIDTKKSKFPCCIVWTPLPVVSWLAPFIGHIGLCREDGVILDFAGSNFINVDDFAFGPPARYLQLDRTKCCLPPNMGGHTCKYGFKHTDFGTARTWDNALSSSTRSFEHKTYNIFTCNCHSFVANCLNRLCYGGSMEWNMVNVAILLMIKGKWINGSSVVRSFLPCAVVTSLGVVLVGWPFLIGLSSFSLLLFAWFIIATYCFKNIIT
The experiment in a line: yeast split-ubiquitin two-hybrid. As for the experimental part: (§1) (B) β-Galactosidase assay for yeast diploid cells expressing AtRTE1-Cub-PLV and various ARGOS-NubG fusion proteins. Yeast cells were cultured in SC-Leu-Trp liquid medium. The β-Galactosidase (β-Gal) activity assay uses […] as a substrate. (C) Growth of yeast diploid cells from the mating of haploid strains containing ARGOS-NubG constructs and negative control […] construct. The plates were incubated at 28° C. for 4 days. (D) Liquid β-Galactosidase assay for yeast diploid cells expressing negative control AtCHX20-Cub-PLV and various ARGOS-NubG fusion proteins.
(§2) (A) Growth of yeast diploid cells on SC dropout media to show protein-protein interaction of ZmRTL4 with Arabidopsis and maize ARGOS. The SC-Leu-Trp and SC-Leu-Trp-His-Ade media contain 134 and 375 μM Met, respectively. The plates were incubated at 28° C. for 4 days. (B) β-Galactosidase assay for yeast diploid cells expressing ZmRTE4-Cub-PLV and various ARGOS-NubG fusion proteins. (C) Growth of yeast diploid cells on SC dropout media to show protein-protein interaction of ZmRTL2 with Arabidopsis and maize ARGOS. The SC-Leu-Trp and SC-Leu-Trp-His-Ade media contain 134 μM Met. The plates were incubated at 28° C. for 5 days. (D) β-Galactosidase assay for yeast diploid cells expressing ZmRTE2-Cub-PLV and various ARGOS-NubG fusion proteins. […]

The assay “AtARL-NubG” has as its target B1. In words: yeast split-ubiquitin two-hybrid. As for the experimental part:
as §1, §2

Turning to B1, the binding result in the assay with AtRTE1-Cub-PLV is “binds”.

B2: ZmRTL4-Cub-PLV (other)
chain: MENDRRQLGQIDPRRARFPCCIVWTPIPFITWLVPFIGHIGICREDGVILDFSGPHFVSVDNFAFGAVARYIQVNCDECYKLIEPEGDATWDGALKKGTQEFQNRNYNLFTCNCHSFVANNLNRLFYSGHDEWNVVSLAAVMFLRGRWVSTASVVKTLLPFAVVLSIGTFLGGTTFLTGLLAFAAAMTVWFLVGTYCIKGLIEL
notes: domain: C-terminal half of ubiquitin (Cub); Bait of the split-ubiquitin yeast two-hybrid system; the legend prints ZmRTE4-Cub-PLV; also called ZmRTE4-Cub-PLV; ZmRTL4 bait construct; not shown: C-terminal half of ubiquitin (Cub); synthetic transcription factor PLV (protease A-LexA-VP16)
Consider B2, for which the binding result with AtARL-NubG is “binds”.
